# Test results reported in US12227570B2, “Anti-CEACAM6 antibodies and methods of use” (Singapore Health Services PTE LTD, priority 2016, dated 2025).
# Several values for one entry are separate records, joined by “and”; a condition that tells them apart may be missing. Equal entries are not always repeated. Entries after “also recorded” stand apart in the source; their conditions may differ.
# Experiments:
# PC-9 and A549 cells = assay: Flow cytometry binding of GR6A04 derivatives; format: cell-based
# Description: Cells were harvested as single cell suspensions using trypsin. 1E5 cells were used per sample, and incubated with 100 μl of mAb culture supernatant for 30 min. Cells were then washed with 1% bovine serum albumin in PBS, and further incubated with 100 μl of goat anti-mouse antibody fluorescein isothiocyanate (FITC)-conjugated (1:500, DAKO, Denmark) for 15 min at 4° C. in the dark. Cells were again washed and resuspended in 200 μL of 1% BSA/PBS for analysis on Guava® easy Cyte 8HT Benchtop Flow Cytometer (Merck Millipore, USA). For interrogation of […] binding, cells were fixed with 4% PFA/PBS (Affymetrix, USA) at room temperature for 10 min, washed in PBS, and permeabilised with 0.1% triton/PBS for 5 min at room temperature, before proceeding with incubation with mAb supernatant/primary antibody. For staining with propidium iodide, PI was added to a final concentration of 5 μg/mL for 5 min just prior to analysis by the flow cytometer.
# A549−GR6A04+ cells [1] = assay: Subcutaneous xenograft model; format: in vivo, NCr Nude mice; conditions: for tumour growth versus buffer control: 10 mg/kg, 3 doses on D0, D4 and D8, start at tumour size >150 mm3
# Description: Xenograft models were established using A549−GR6A04+ cells in NCr Nude mice. 5E6 cells in DMEM basal media were mixed at a 1:1 ratio with Matrigel, and injected subcutaneously at a volume of 200 μl. Tumours were allowed to form and reach a size of >150 mm^3, before they were randomised into 5 groups of 5 mice each. The groups were treated with mAbs as follows: (1) Buffer control; (2) GR6A04-MMAE; (3) Hu-GR6A04; (4) GR6A04; (5) MG1.45-MMAE isotype control. mAbs were injected via tail vein injection at a total volume of 100 μl. Each dose, were applicable, is at 200 μg (equivalent to 10 mg/kg), and treatment was done every 4 days, for a total of 3 doses (Day 0, 4 and 8). Tumour size was monitored over 50 days.
# A549−GR6A04− populations = assay: ADC dose-response, CellTiter-Glo viability assay; format: cell-based; conditions: A549−GR6A04− non-binding cells
# Description: (§1) Cells were seeded into a black coated 96 well plate (Grenier Bio-one, UK) at a range of density from 1000-5000 cells per well (depending on the cell type used) and 90 μL per well. The plate was then incubated for 24 hours at 37° C. in humidified air with 5% CO2. After 24 hours, 10 μL of mAb or buffer was added to each well and the plate was again placed at 37° C. in humidified air with 5% CO2. 4 days after addition of mAb or buffer, 100 μL of CTG substrate (Promega, Wisconsin, USA) was added to each well. The plate was then left in the dark for 10 minutes, with vigorous shaking. The cell viability of the samples was then quantified using Tecan I-control (Tecan, Switzerland).
# (§2) GR6A04 and a commercial mouse IgG1 isotype antibody (Clone MG1.45 from BioLegend) were directly conjugated with MMAE toxin (Moradec, San Diego, USA) at a DAR of 3.0 and 3.3 respectively. Dose-response curve for the conjugated mAbs were established with the CTG assay with a serial dilution range of 0 to 4.5 μg/ml. The cell viability of the cells was measure 4 days post treatment as described previously.
# H1299 = assay: ADC dose-response, CellTiter-Glo viability assay; format: cell-based; conditions: H1299 non-binding cells
# Description: as §1, §2
# PC-9 [2] = assay: ADC dose-response, CellTiter-Glo viability assay; format: cell-based; conditions: viability 4 days post treatment
# Description: as §1, §2
# A549−GR6A04+ cells [3] = assay: ADC dose-response, CellTiter-Glo viability assay; format: cell-based; conditions: viability 4 days post treatment
# Description: as §1, §2
# A549−GR6A04+ = assay: ADCC reporter bioassay (Promega, Luciferase reporter for FcγR); format: cell-based
# Description: (§3) ADCC activity was measured using a reporter bioassay (Promega; ADCC Reporter Bioassay, #G7010). The ADCC bioassay was carried out according to the manufacturer's protocol Briefly, PC-9 and A549 cells were seeded at 5,000 cells per well in a 96-well clear bottom black tissue culture plates (Corning; #3904) in low 4% IgG-serum (Promega; #G711A) media and allowed to attach and spread overnight. Serial dilutions of Hu-GR6A04 were incubated in triplicate wells for approximately 15 min at 37° C., 5% CO2. Following incubation, engineered effector cells were added to the wells at approximately 150,000 cells per well. After 6 hours, Bio-Glo™ Luciferase Assay Substrate (Promega; #G719A and #G720A) was added to the wells and luminescence was measured using the Infinite® 200 microplate reader (Tecan).
# PC-9 [4] = assay: as above; format: cell-based
# Description: as §3
Molecule,flow cytometry binding (PC-9 and A549 cells),tumour growth versus buffer control (A549−GR6A04+ cells [1]),"tumour growth (A549−GR6A04+ cells [1]; I.V. 10 mg/kg, every 4 days for 3 doses, throughout the 45 days of study)",effect on cell growth (A549−GR6A04− populations),effect on cell growth (H1299),EC50 (PC-9 [2]),EC50 (A549−GR6A04+ cells [3]),EC50 (A549−GR6A04+),EC50 (PC-9 [4])
GR6A04-MMAE (conjugate) VH: SGPELVKPGASVKMSCKASGNTFTSYVMHWVKQKPGQGLEWIGYINPYNDGTKYNEKFKGKATLTSDKSSSTAYMELSSLTSEDSAVYYCARSTARATPYFYAMDYWGQGTSVTVSS VL: DILMTQSPSSLAVTAGEKVTMRCKSSQSLLWSVNQNSYLSWYQLKQGQPPKLLLYGASIRESWVPDRFTGSGSGTDFTLTISNVHVEDLAVYYCQHNHGSFLPYTFGGGTKLEIK,comparable to unconjugated GR6A04; also recorded: not affected after conjugation,little tumour growth,< 2 fold,did not have an effect on cell growth,did not have an effect on cell growth,19.8 nM and 19.6 nM,3.33 nM,–,–
"Hu-GR6A04: human chimeric mAb with GR6A04 VH and VL cloned into a human Ig constant region backbone, expressed in CHO cells (antibody, V domains shown) VH: SGPELVKPGASVKMSCKASGNTFTSYVMHWVKQKPGQGLEWIGYINPYNDGTKYNEKFKGKATLTSDKSSSTAYMELSSLTSEDSAVYYCARSTARATPYFYAMDYWGQGTSVTVSS VL: DILMTQSPSSLAVTAGEKVTMRCKSSQSLLWSVNQNSYLSWYQLKQGQPPKLLLYGASIRESWVPDRFTGSGSGTDFTLTISNVHVEDLAVYYCQHNHGSFLPYTFGGGTKLEIK",comparable to GR6A04,repression of tumour growth; also recorded: slower growth compared to the buffer control,–,–,–,–,–,1.33 nM,39.6 nM
